Measured values reported in the supplement of paper PMC9170038.

Key:
[1] = test system: K4 kissing-loop RNA reporter; assay: apparent KD of K4 kissing-loop reporter; higher = weaker reporter binding; settings: Eterna round: R107;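 further: bound reporter read as fluorescence of individual clusters on recovered sequencing chips by microscopy, with normalized cluster intensities fitted with a binding model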
Procedure: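 RNA-MaP round R107: designed RNA switches with theophylline, tryptophan, arginine or FMN aptamers are transcribed on-chip within common flanks. They are titrated with a labelled K4 kissing-loop RNA reporter in RNA-MaP buffer (100 mM Tris pH 7.5, 80 mM KCl, 4 mM MgCl2), without ligand or with the indicated ligand. Median apparent KD per design.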

MS2 coat protein = assay: apparent KD of MS2 coat protein; designed switch direction (-1 OFF switch, 1 ON switch): -1; higher = weaker reporter binding
In short: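 Designed RNA switches with common flanks were made on Illumina chips by stalled E. coli RNA polymerase. Titration with SNAP-549-labelled MS2 coat protein doubled from 0.7 or 1.5 nM up to 3 µM. Apparent KD is each design's median over clusters after curve-fitting normalised fluorescence.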

[2] = input ligand: theophylline 20 uM
[3] = input ligand: tryptophan 2.4 mM
[4] = Eterna round: R95, input ligand: microRNA oligo, concentration not stated
[5] = input ligand: microRNA oligo, concentration not stated
[6] = Eterna round: R95, input ligand: FMN 200 uM
[7] = Eterna round: R95, input ligand: none

Sequence | apparent KD of K4 kissing-loop reporter ([1]; input ligand: FMN 200 uM) [nM] | apparent KD of K4 kissing-loop reporter ([1]; input ligand: arginine 13.2 mM) [nM] | apparent KD of K4 kissing-loop reporter ([1]; input ligand: none) [nM] | apparent KD of K4 kissing-loop reporter [1, 2] [nM] | apparent KD of K4 kissing-loop reporter [1, 3] [nM] | other results
AACUGUCAAGGACAACAUUACUGAAGUGAUACCAGCAUCGAAAGAUGCCCUUGGCAGCACUAACUUGCAGUGAUGUUGCAAGUAA [BrourdMod 3 - Jieux - Exclusion - Theophylline A] | 207 | 165 | 184 | 202 | 190 | 
AUGCGCGUGCGAUGCAAAUCGCACGCGCAUCGAGGACCGGUACGGCCGCCACUCGCUCGCGCCGAGUGAUGUUCGGCCGGCGAAC [#2 Same State - Tryptophan A Attempt #6 (HarryS)] | 258 | 243 | 269 | 327 | 565 | 
UUUAAACAUAGUGAUGUUAUGUAACAGUGACGAGGACCGGUACGGCCGCCACUCGAGAGAGAUAGUGGUCAUGCAAAUGUAUGCC [#16 K4 Tryptophan A Same State] | 145 | 167 | 123 | 136 | 137 | 
AAAAUAAACCAGUGAUGUUGGUGUCUGGAUACCAGCGACGAAAGUCGCCCUUGGCAGCUAUGGACGUACAAAAUAAGUACGUCCU [MatMod 7 - Jieux - Same State - Theophylline A] | 704 | 485 | 622 | 637 | 510 | 
GCAUUGAGUGAUGUUUAAGCUUAGUCAUCACGAGGACCGGUACGGCCGCCACUCGUGCUUGGAGCGACCGAUACCCUAGAGACCC [theeternabot_sameState_KL_Trp_A_27] | 160 | 62.5 | 61.7 | 247 | 193 | 
UGUACCGAGUCAGGAUAUCAUAAUAAUCCAGUGAUGUUGGAAUAACCAGUACAAAAGUGCUGGCCUUGAGAAGGGACUUGGUACU [FmnBS 4 #SwitchBubble #StaticStem] | 179 | 140 | 177 | 157 | 147 | 
GUGCAAAGCACCGGCACGAGCAGCCUAAAGGAGGAUAUGACGAAAGUCAGAAGGCCUAGUGAUGUUAGGUCUUGCUUGAGUCGAA [Omei KL FMN A Exc B v2] | 156 | 214 | 301 | 323 | 320 | 
CAGGUCACAGAGUGAUGUUCUGUGUCCGAAGGAGCGAUGGUCGCAUCAGGUAGGUCGCGGAUACAGUUGAAGUCCUAUCUAGACG [#10 K4 Arginine A Exclusion] | 143 | 111 | 119 | 123 | 134 | 
CUACGUCGAGCGGCCGCCACUAUGGGUUGCCAAGUAGUGAUGUUACUGAGCUUUUAAUGAUCCUUUAGGACCGGGCUUUGGGAGG [theeternabot_sameState_KL_Trp_B_46] | 281 | 203 | 227 | 269 | 174 | 
AGCCAGGAACUUGCAACCUGGCUGCUGGAUACCAGCUCGGAAACGAGCCCUUGGCAGCCAGUACUUGCAGUGAUGUUGCAAGUUC [Design13] | 72.2 | 37.3 | 153 | 25.9 | 290 | 
GCCGUAGAUGGAAGGAGCGUGGUUAAUGUAAGUGAUGUUUACGAGGUUAACAAUUAACCGCCACAGGUAGGUCGCCAUCUACGGC | 72.8 | 62.8 | 77.5 | 58.6 | 73.8 | 
UCCUAGGCUCGAAAGAGCCUAGGAUGGACUCAGGAUAUCCGGAAACGGAGAAGGGAGUCACUAGUGAUGUUAGGGACUCCCUAAA | 87.5 | 79 | 101 | 70.3 | 87.5 | 
UUUUUAUUCAGUGAUGUUGAAUUUAUAACAGAGGAUAUGCAUAAAAGCAGAAGGCUGAAAUACUAUACUUUAAUAAAUUAUAUUU [JR_SSFMNA_Sub016] | 214 | 274 | 261 | 326 | 192 | 
CAGCAGAGUGAUGUUCUGCUUACUGCGGAUACCAGCUUUGCCAGAGGCCCUUGGCAGCCGGGCGGCUCAGUGAUGUUGGGUUGUU [Same State Theophylline A GF 14] | 234 | 140 | 186 | 208 | 167 | 
CGAGUCGGUUCAGAUACCAGCCAAUUAAAGUCGAGUGAUGUUCGACAAUGAACGUCCAAAGGCCCUUGGCAGCUGAAUUGGGAAC [Same State Theophylline B GF 19] | 216 | 107 | 191 | 250 | 122 | 
ACAUGCCCAGUGAUGUUGGAUAAAUAUGAAGGAGCGUGCGAAAGCACAGGUAGGUCGCAUAAUAGCAUGAGUCACGAAAGUGACA [#18 K4 Arginine A Same State] | 327 | 291 | 356 | 278 | 209 | 
GCCGUACGCAUGGAUACCAGAGUCUUUCUAGUGCCUCUGGAGUACAGUGAUGUUGUGCCACUCCCUUGGCAGCCAUGCGUACGGC | 1080 | 647 | 906 | 671 | 768 | 
AAGCCAGUGAUGUUGGCAAAAUUUACUGAAGGAGCGCGUGAAAACGCAGGUAGGUCGCAGAACCUUGCCAACUAACACGAAAGUG [Ex Arginine A K4 20] | 261 | 237 | 253 | 469 | 251 | 
UGCUCACAUAGAGGAUAUCUCAUAUGAGACAGUGAUGUUGUCUCAUAUAGACAUGUAAGUCUCAUGAGAGAAGGCUGUGUGAGCA [FMN B SS t8] | 140 | 106 | 117 | 99.3 | 113 | 

Sequence | apparent KD of K4 kissing-loop reporter ([1]; input ligand: FMN 200 uM) [nM] | apparent KD of K4 kissing-loop reporter ([1]; input ligand: arginine 13.2 mM) [nM] | apparent KD of K4 kissing-loop reporter ([1]; input ligand: none) [nM] | apparent KD of K4 kissing-loop reporter [1, 2] [nM] | apparent KD of K4 kissing-loop reporter [1, 3] [nM] | other results
AGACUUCACCGAAGGAGCGACGUAGCCUAGUGAUGUUAGGCAAGAGAGAAAUCUCUUAAACGUCAGGUAGGUCGCGGUGAAGUCA [Omei KL Arginine B SS C v3] | 262 | 163 | 202 | 227 | 190 | 
AAACAUCACUGGGAGUGAUGUUCUCAGUGACGAGGACCGGUACGGCCGCCACUCGCGAGAGAACUAGUCUAGACUUGACUGCAUU [Excl Tryptophan A V14] | 386 | 366 | 356 | 425 | 428 | 
CACGUGUAAGGAUAUGACAAUGGUAUCUUCGGAUACCAUUGUCAGAAGGUACAUGAGGAUCACCCAUGUAACAC [Ex4-3: 15] (puzzle: Exclusion 4) |  |  |  |  |  | apparent KD of MS2 coat protein (MS2 coat protein; [4]): 17.2 nM
UCUCCCACUCGAGGAUAUCCAUAGAGCAACUGAGGAGAAGGCGAGUGUCCAAAACAUGAGGAUCACCCAUGUGACCUCCCGAAC [Eredgein] (Eterna round: R96, puzzle: Exclusion NG 1) |  |  |  |  |  | apparent KD of MS2 coat protein (MS2 coat protein; input ligand: FMN 200 uM): 101 nM; apparent KD of MS2 coat protein (MS2 coat protein; [5]): 37.5 nM; apparent KD of MS2 coat protein (MS2 coat protein; input ligand: none): 39.6 nM
GAUUAUGCGAGCUUUAGGGACAUGAGGAUCACCCAUGUUCGUCUUAUUAGUCUGGGUGCACUAACAUACCUAAAUCU [JMF 37] (puzzle: Sensor v3, turn-off variant 1) |  |  |  |  |  | apparent KD of MS2 coat protein (MS2 coat protein; [6]): 135 nM; apparent KD of MS2 coat protein (MS2 coat protein; [4]): 81.4 nM; apparent KD of MS2 coat protein (MS2 coat protein; [7]): 153 nM
UUAUUACAAGCAAGAUCUCACAUGAGGAUCACCCAUGUGCUCGUCUUAUAAGGUACUGUGACGAAAGUCACGGUACC [Eli 100 v1] (Eterna round: R97, puzzle: Sensor, turn-off variant 1) |  |  |  |  |  | apparent KD of MS2 coat protein (MS2 coat protein; input ligand: FMN 200 uM): 14.8 nM; apparent KD of MS2 coat protein (MS2 coat protein; input ligand: none): 17.3 nM
AAAAGUUAAGGAUAUACAGGGAGCCGCGGCGACUCGCCGCAACAUGAGGAUCACCCAUGUAGAAGGUAGCCAAA [Enbibi] (puzzle: Exclusion 2) |  |  |  |  |  | apparent KD of MS2 coat protein (MS2 coat protein; [4]): 23.7 nM
UUUUGGCAUGUAGGAUAUGGGUCCGAUUAGGAUUUAGAAGGACAUGAGGAUCACCCAUGUGCAUUUAAUUGGUCUUUAUUUUUU [EXclNG1-LROPPY14] (Eterna round: R96, puzzle: Exclusion NG 1) |  |  |  |  |  | apparent KD of MS2 coat protein (MS2 coat protein; [5]): 62.3 nM
AACCUGAGGCUUUGCUUUAGGUCUACAUGAGGAUCACCCAUGUAGGAUAUGGUAGGCUUUGCUUACCAGAAGGACAUGGUAAUU [JL ENG3 1.13] (Eterna round: R96, puzzle: Exclusion NG 3) |  |  |  |  |  | apparent KD of MS2 coat protein (MS2 coat protein; input ligand: FMN 200 uM): 323 nM; apparent KD of MS2 coat protein (MS2 coat protein; [5]): 47.7 nM; apparent KD of MS2 coat protein (MS2 coat protein; input ligand: none): 65.5 nM
GUGUAGUCAGGAUAUACAUAGGAAGAUAAGAUAAGAUAAGCACAUGAGGAUCACCCAUGUAGAAGGGACAGUGU [Excluse me!! 1 - Jieux - Exclusion 2] (puzzle: Exclusion 2) |  |  |  |  |  | apparent KD of MS2 coat protein (MS2 coat protein; [6]): 159 nM; apparent KD of MS2 coat protein (MS2 coat protein; [4]): 74.2 nM; apparent KD of MS2 coat protein (MS2 coat protein; [7]): 122 nM
CCGCCUGGAUAGGAUAUAGAGCUUUGAGAGGUCCUAGAAGGGUCCACAUGAGGAUCACCCAUGUCACAAUAUCG [Eternabot (L1) Solution 71] (Eterna round: R97, puzzle: Exclusion 6) |  |  |  |  |  | apparent KD of MS2 coat protein (MS2 coat protein; input ligand: FMN 200 uM): 28 nM; apparent KD of MS2 coat protein (MS2 coat protein; input ligand: none): 29.6 nM
GUCAGCUCGUCAGGAUAUACAUGAGGAUCACCCAUGUGAUCAAUAGCAGCUUCGGCUGCAUUAAUGUAGAAGGGACGAGCUGAU [ENG2/5-B2] (Eterna round: R96, puzzle: Exclusion NG 2) |  |  |  |  |  | apparent KD of MS2 coat protein (MS2 coat protein; [5]): 168 nM
AAAAGACAUGAGGAUCACCCAUGUGAGGAUAUUGGAAGAAAGAAAAGAAAGAAAGAAACGAGAAGGCACAAAAG [Exclusion] (puzzle: Exclusion 1) |  |  |  |  |  | apparent KD of MS2 coat protein (MS2 coat protein; [6]): 68.2 nM; apparent KD of MS2 coat protein (MS2 coat protein; [4]): 60.9 nM; apparent KD of MS2 coat protein (MS2 coat protein; [7]): 51.9 nM
CAAUAACAAGCAGGAUCCUACAUGAGGAUCACCCAUGUGCUCGUCUUAUAAAGUACUAUCACGAAAGUGAUAGUACA [Mat - Sensor v3 - turn-off var 1 - Eli Mod - D71] (puzzle: Sensor v3, turn-off variant 1) |  |  |  |  |  | apparent KD of MS2 coat protein (MS2 coat protein; [6]): 190 nM; apparent KD of MS2 coat protein (MS2 coat protein; [4]): 58.6 nM; apparent KD of MS2 coat protein (MS2 coat protein; [7]): 396 nM
CGAUGUUAUGUCAGGAUAUGCGUUGCGAAAGCAAUGCAGAAGGGACAUGAGGAUCACCCAUGUCCUAACCAUCG [Omei A 5] (puzzle: Brourd's mod of Exclusion 4) |  |  |  |  |  | apparent KD of MS2 coat protein (MS2 coat protein; [4]): 12.7 nM
GCGCCAUCGUGAGAUGGCGUAAUUACAUGAGGAUCACCCAUGUAGGAUAUCGAUUGCUUUGCAGUCGAGAAGGGCAUGAUAAGU [JL ENG3 3.79] (Eterna round: R96, puzzle: Exclusion NG 3) |  |  |  |  |  | apparent KD of MS2 coat protein (MS2 coat protein; input ligand: FMN 200 uM): 49.6 nM; apparent KD of MS2 coat protein (MS2 coat protein; [5]): 34.6 nM; apparent KD of MS2 coat protein (MS2 coat protein; input ligand: none): 43.3 nM
UUCUUUACACGAGGAUAUCAUACAUGAGGAUCACCCAUGUUACUUUGUCUGUUAUUAUGUAUUAUUGAGAAGGCGUUUUUCUUU [JR_ExcNG2_Sub077] (Eterna round: R96, puzzle: Exclusion NG 2) |  |  |  |  |  | apparent KD of MS2 coat protein (MS2 coat protein; [5]): 15.8 nM
AAGAAGUGAGGAUAUGCAAAGAAAGAAAGAAAGAAAGAAAAGCAGAAGGCACAUGAGGAUCACCCAUGUAAAGA [Fourth Time] (puzzle: Exclusion 4) |  |  |  |  |  | apparent KD of MS2 coat protein (MS2 coat protein; [6]): 20.5 nM; apparent KD of MS2 coat protein (MS2 coat protein; [4]): 16.5 nM; apparent KD of MS2 coat protein (MS2 coat protein; [7]): 15.6 nM
